Drawing on US20200230168, “NUCLEIC ACID OLIGOMERS AND USES THEREFOR” (Queensland University of Technology, published 2020), this text covers binding signal for 25 molecules.

Chain of hSSB1 (Q9BQ15 whole entry, one chain of several): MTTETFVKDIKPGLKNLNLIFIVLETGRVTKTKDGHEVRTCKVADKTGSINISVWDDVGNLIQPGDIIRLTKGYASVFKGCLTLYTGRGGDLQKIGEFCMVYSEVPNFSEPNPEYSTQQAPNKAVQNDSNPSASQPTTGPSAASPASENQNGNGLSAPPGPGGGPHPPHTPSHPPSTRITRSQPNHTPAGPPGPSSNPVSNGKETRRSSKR

One data set concerns the target THOC4 (ALYREF) (UniProt Q86V81 Q86V81:2-257). The data set can be described thus: SPR. On the technique in general: SPR reads the build-up and loss of mass on a sensor chip optically.
As to UCUUAUGUUUCCGAACCGUU (ssRNA, 2'-OMe all, full PS) [DKLS370480 (SEQ 25)], the binding signal turned out to be 0.34 normalized Rmax.

GGGCCUCCCGCACUUGAGAU (ssRNA, 2'-OMe all, full PS) [DKLS679059 (SEQ 55)] gave a binding signal of 0.37 normalized Rmax.

For the molecule GUGCAUGGAAUCACGGAG (ssRNA, 2'-OMe all, full PS) [Open_A 3' truncation 18 nt], the binding signal is 0.39 normalized Rmax.

Turning to AGAGGCAGCAGUACGACG (ssRNA, 2'-OMe all, full PS) [LSA_ATG both-end truncation 18 nt], the binding signal came to 0.81 normalized Rmax.

As to UCCUGGAUCCUUCACCAAUG (ssRNA, 2'-OMe all, full PS) [DKLS687192 (SEQ 28)], the binding signal stood at 0.76 normalized Rmax.

Take AGGCAGCAGUACGACGG (ssRNA, 2'-OMe all, full PS) [LSA_ATG 5' truncation 17 nt]: the binding signal was 0.8 normalized Rmax.

As for UACCGCGUGCGACCCUCU (ssRNA, full PS) [DKLS371273 (SEQ 7)], the binding signal came to 0.81 normalized Rmax.

For the molecule GCCGGACUUGCCU (ssRNA, 2'-OMe all, full PS) [In3E3 5' truncation 13 nt], the binding signal is 0.01 normalized Rmax.

For UCUCCCAGCGUGCGCCAU (ssRNA, 2'-OMe all, full PS) [DKLS696616 (SEQ 9)], the binding signal was determined as 1.12 normalized Rmax.

On to UAAGCUGUUCUAUGUGUU (ssRNA, 2'-OMe all, full PS) [DKLS463500 (SEQ 23)], for which the binding signal worked out at 0.32 normalized Rmax.

For GGCGAAUGAGACUUCUCUUA (ssRNA, 2'-OMe all, full PS) [DKLS693540 (SEQ 27)], the binding signal was found to be 0.89 normalized Rmax.

For CGGACUUGCCU (ssRNA, 2'-OMe all, full PS) [In3E3 5' truncation 11 nt], the binding signal turned out to be 0.01 normalized Rmax.

GGGACGCGGCGCUCGGUCAU (ssRNA, 2'-OMe all, full PS) [DKLS951212 (SEQ 30)] yielded a binding signal of 1.35 normalized Rmax.

GCAGCAGUACGACGG (ssRNA, 2'-OMe all, full PS) [LSA_ATG 5' truncation 15 nt] displayed a binding signal of 0.31 normalized Rmax.

With CAGAGGCAGCAGUACG (ssRNA, 2'-OMe all, full PS) [LSA_ATG 3' truncation 16 nt], the binding signal came out at 0.53 normalized Rmax.

GCCACCCGUCGGUUGCUAGA (ssRNA, 2'-OMe all, full PS) [DKLS659460 (SEQ 52)] had a binding signal of 0.89 normalized Rmax.

AGAGGCAGCAGUACGACGG (ssRNA, 2'-OMe all, full PS) [LSA_ATG 5' truncation 19 nt] registered a binding signal of 1.1 normalized Rmax.

Regarding CUGCCUAAGUAAAAAGUGUAAAC (ssRNA, 2'-OMe all, full PS) [DKLS687118 (SEQ 15)], the binding signal turned out to be 0.51 normalized Rmax.

The molecule AGGCAGCAGUACGA (ssRNA, 2'-OMe all, full PS) [LSA_ATG both-end truncation 14 nt] showed a binding signal of 1.02 normalized Rmax.

Molecule GCCCGUCUGGCGCAUAGCUA (ssRNA, 2'-OMe all, full PS) [DKLS646683 (SEQ 54)] returned a binding signal of 0.85 normalized Rmax.

For CAGCAGCAGAGUAUUUAUCAU (ssRNA, 2'-OMe all, full PS) [DKLS481254 (SEQ 31)], the binding signal came out at 0.46 normalized Rmax.

CAGAGGCAGCAGUACGAC (ssRNA, 2'-OMe all, full PS) [LSA_ATG 3' truncation 18 nt] showed a binding signal of 0.71 normalized Rmax.

ACAUGGUUCCCCGACAGUGUUA (ssRNA, 2'-OMe all, full PS) [DKLS687118 (SEQ 35)]: the binding signal was 0.72 normalized Rmax.

As to GAGUAAACAUUCUGUGUGGAGUC (ssRNA, 2'-OMe all, full PS) [DKLS965031 (SEQ 17)], the binding signal worked out at 0.64 normalized Rmax.

Turning to UGUCAUAUUCCUGGAUCCUU (ssRNA, 2'-OMe all, full PS) [DKLS684387 (SEQ 29)], the binding signal was determined as 0.87 normalized Rmax.

The next data set concerns the target hSSB1 (Homo sapiens, UniProt Q9BQ15 Q9BQ15:1-211). The data set can be described thus: SPR.
Turning to UCUUAUGUUUCCGAACCGUU (ssRNA, 2'-OMe all, full PS) [DKLS370480 (SEQ 25)], the binding signal is 0.69 normalized Rmax.

The molecule GGGCCUCCCGCACUUGAGAU (ssRNA, 2'-OMe all, full PS) [DKLS679059 (SEQ 55)] gave a binding signal of 0.85 normalized Rmax.

For GUGCAUGGAAUCACGGAG (ssRNA, 2'-OMe all, full PS) [Open_A 3' truncation 18 nt], the binding signal is 1.03 normalized Rmax.

For the molecule AGAGGCAGCAGUACGACG (ssRNA, 2'-OMe all, full PS) [LSA_ATG both-end truncation 18 nt], the binding signal worked out at 0.96 normalized Rmax.

As for UCCUGGAUCCUUCACCAAUG (ssRNA, 2'-OMe all, full PS) [DKLS687192 (SEQ 28)], the binding signal amounted to 1.08 normalized Rmax.

Take AGGCAGCAGUACGACGG (ssRNA, 2'-OMe all, full PS) [LSA_ATG 5' truncation 17 nt]: the binding signal turned out to be 0.68 normalized Rmax.

The molecule UACCGCGUGCGACCCUCU (ssRNA, full PS) [DKLS371273 (SEQ 7)] displayed a binding signal of 1.05 normalized Rmax.

Molecule GCCGGACUUGCCU (ssRNA, 2'-OMe all, full PS) [In3E3 5' truncation 13 nt] came in with a binding signal of 0.22 normalized Rmax.

Consider UCUCCCAGCGUGCGCCAU (ssRNA, 2'-OMe all, full PS) [DKLS696616 (SEQ 9)], for which the binding signal stood at 0.79 normalized Rmax.

In the case of UAAGCUGUUCUAUGUGUU (ssRNA, 2'-OMe all, full PS) [DKLS463500 (SEQ 23)], the binding signal was 0.74 normalized Rmax.

Turning to GGCGAAUGAGACUUCUCUUA (ssRNA, 2'-OMe all, full PS) [DKLS693540 (SEQ 27)], the binding signal was determined as 1.64 normalized Rmax.

In turn, CGGACUUGCCU (ssRNA, 2'-OMe all, full PS) [In3E3 5' truncation 11 nt] returned a binding signal of 0.09 normalized Rmax.

On to GGGACGCGGCGCUCGGUCAU (ssRNA, 2'-OMe all, full PS) [DKLS951212 (SEQ 30)], for which the binding signal worked out at 2.13 normalized Rmax.

Turning to GCAGCAGUACGACGG (ssRNA, 2'-OMe all, full PS) [LSA_ATG 5' truncation 15 nt], the binding signal was found to be 0.46 normalized Rmax.

Turning to CAGAGGCAGCAGUACG (ssRNA, 2'-OMe all, full PS) [LSA_ATG 3' truncation 16 nt], the binding signal is 0.46 normalized Rmax.

Take GCCACCCGUCGGUUGCUAGA (ssRNA, 2'-OMe all, full PS) [DKLS659460 (SEQ 52)]: the binding signal was 1.65 normalized Rmax.

Consider AGAGGCAGCAGUACGACGG (ssRNA, 2'-OMe all, full PS) [LSA_ATG 5' truncation 19 nt], for which the binding signal came out at 1.02 normalized Rmax.

As for CUGCCUAAGUAAAAAGUGUAAAC (ssRNA, 2'-OMe all, full PS) [DKLS687118 (SEQ 15)], the binding signal came to 1.21 normalized Rmax.

AGGCAGCAGUACGA (ssRNA, 2'-OMe all, full PS) [LSA_ATG both-end truncation 14 nt] registered a binding signal of 1.05 normalized Rmax.

GCCCGUCUGGCGCAUAGCUA (ssRNA, 2'-OMe all, full PS) [DKLS646683 (SEQ 54)] gave a binding signal of 0.98 normalized Rmax.

In turn, CAGCAGCAGAGUAUUUAUCAU (ssRNA, 2'-OMe all, full PS) [DKLS481254 (SEQ 31)] came in with a binding signal of 1.1 normalized Rmax.

Molecule CAGAGGCAGCAGUACGAC (ssRNA, 2'-OMe all, full PS) [LSA_ATG 3' truncation 18 nt] returned a binding signal of 0.64 normalized Rmax.

In turn, ACAUGGUUCCCCGACAGUGUUA (ssRNA, 2'-OMe all, full PS) [DKLS687118 (SEQ 35)] yielded a binding signal of 1.7 normalized Rmax.

Molecule GAGUAAACAUUCUGUGUGGAGUC (ssRNA, 2'-OMe all, full PS) [DKLS965031 (SEQ 17)] yielded a binding signal of 1.35 normalized Rmax.

Take UGUCAUAUUCCUGGAUCCUU (ssRNA, 2'-OMe all, full PS) [DKLS684387 (SEQ 29)]: the binding signal amounted to 1.38 normalized Rmax.
